Results: patent publication US20150291692A1 (INNATE PHARMA, published 2015)
Substitutions are numbered along the chain they refer to.

Experiments:
[1] = biological target: T1, wild-type human KIR3DL2 (allele *002) expressed on transfected HEK-293T cells (human, UniProt P43630 22-455); test: flow cytometry on transfected HEK-293T cells
T1 construct: also called HEK-293T/KIR3DL2; WTaKIR3DL2

[2] = biological target: T2, KIR3DL2 mutant M7 (L113V;T118R) (human, UniProt P43630 22-455); test: flow cytometry on HEK-293T cells transfected with the mutant; + no significant loss of binding, ± decrease
T2 construct: Expressed on transfected HEK-293T cells; also called Number 7

[3] = biological target: T3, KIR3DL2 mutant M8 (V127I) (human, UniProt P43630 22-455); test: as above
T3 construct: Expressed on transfected HEK-293T cells; also called Number 8; Mutant 8

[4] = biological target: T4, KIR3DL2 mutant M9 (L164M;P166L;V167A) (human, UniProt P43630 22-455); test: as above
T4 construct: Expressed on transfected HEK-293T cells; also called Number 9

[5] = biological target: T5, KIR3DL2 mutant M10 (R136K;E141K) (human, UniProt P43630 22-455); test: as above
T5 construct: Expressed on transfected HEK-293T cells; also called Number 10

[6] = biological target: T6, KIR3DL2 mutant M11A3 (N99S;H100S;Q184A) (human, UniProt P43630 22-455); test: as above
T6 construct: Expressed on transfected HEK-293T cells; also called Number 26 (11A3)

[7] = biological target: T7, KIR3DL2 mutant M11A4 (E130S;H131S;R145S) (human, UniProt P43630 22-455); test: as above
T7 construct: Expressed on transfected HEK-293T cells; also called Number 27 (11A4)

[8] = biological target: T8, KIR3DL2 mutant M11A5 (V147A;Q149S) (human, UniProt P43630 22-455); test: as above
T8 construct: Expressed on transfected HEK-293T cells; also called Number 28 (11A5)

[9] = biological target: T9, KIR3DL2 mutant M11A6 (I150A;M128A) (human, UniProt P43630 22-455); test: as above
T9 construct: Expressed on transfected HEK-293T cells; also called Number 29 (11A6)

[10] = biological target: T10, KIR3DL2 mutant M11 (P179T;S181T) (human, UniProt P43630 22-455); test: flow cytometry on HEK-293T cells transfected with the mutant; - means substantially complete loss of binding
T10 construct: Expressed on transfected HEK-293T cells; also called Number 11; mutant 11

[11] = biological target: T11, KIR3DL2 mutant M11A1 (V178A;H180S) (human, UniProt P43630 22-455); test: as above
T11 construct: Expressed on transfected HEK-293T cells; also called Number 24 (11A1); mutant 11A1

[12] = biological target: T12, KIR3DL2 mutant M5 + 11 (P66T;P179T;S181T) (human, UniProt P43630 22-455); test: as above
T12 construct: Expressed on transfected HEK-293T cells; also called Number 22 (5 + 11)

[13] = biological target: T13, KIR3DL2 mutant M8 + 11 (V127I;P179T;S181T) (human, UniProt P43630 22-455); test: as above
T13 construct: Expressed on transfected HEK-293T cells; also called Number 23 (8 + 11)

[14] = biological target: T14, KIR3DL2 recombinant protein (R&D Systems) (human, UniProt P43630 28-340); test: SCK kinetic method
T14 construct: Bought protein; also called rec KIR3DL2; recombinant KIR3DL2-Fc fusion protein; not shown: Fc part of the bought fusion protein; not described

[15] = biological target: T14, KIR3DL2 recombinant protein (R&D …); test: regular kinetic method
[16] = biological target: T15, KIR3DL1 expressed on cells (human, UniProt P43629 22-444); test: flow cytometry on HEK KIR3DL1 cells (row HEK-KIR3DL1)
T15 construct: also called HEK-293T/KIR3DL1

[17] = biological target: T14, KIR3DL2 recombinant protein (R&D …); test: SPR (Biacore T100), antibody injected over immobilised recombinant KIR3DL2, bivalent affinity, pH 7.2
[18] = biological target: T7, KIR3DL2 mutant M11A4 (E130S;H131S;R145S); test: flow cytometry on HEK-293T cells transfected with the mutant; - means substantially complete loss of binding
[19] = biological target: T16, KIR3DL2 at the surface of HUT78 Sezary Syndrome cell line (human, UniProt P43630 22-455); test: flow cytometry competition on HUT78 cells; naked antibody titrated against 15C11-PE (5 µg/ml)
T16 construct: whole, on cells; Two alleles are expressed

[20] = biological target: T17, NK cells, including normal KIR3DL2+ NK cells (Homo sapiens, UniProt P43630); test: flow cytometry of whole blood of a Sezary Syndrome patient, antibody + GaM-PE against CD4; lower gate (CD4-negative NK cells)
T17 construct: full-length receptor on the cell surface; also called gate NK GaM PE+; KIR3DL2 on CD4-negative NK cells in the blood of the Sezary Syndrome patient

[21] = biological target: T18, KIR3DL2 on fresh Sezary Syndrome cells of patients (human, UniProt P43630 22-455); test: flow cytometry of whole blood of a Sezary Syndrome patient, antibody + GaM-PE against CD4; upper gate (CD4+ KIR3DL2+ leukemic Sezary cells)
T18 construct: whole, on cells; also called SS cells

[22] = biological target: T19, KIR3DL2 mutant 1 (R13W, A25T, Q27R) (human, UniProt P43630 22-455); test: flow cytometry on HEK-293T cells transfected with the mutant
T19 construct: Expressed on transfected HEK-293T cells; also called Number 1

[23] = biological target: T20, KIR3DL2 mutant 2 (I60N, G62S) (human, UniProt P43630 22-455); test: as above
T20 construct: The running text prints 160N for I60N; Expressed on transfected HEK-293T cells; also called Number 2

[24] = biological target: T21, KIR3DL2 mutant 2A2 (Q56S, E57A) (human, UniProt P43630 22-455); test: as above
T21 construct: Expressed on transfected HEK-293T cells; also called Number 34 (1 + 2 A2)

[25] = biological target: T22, KIR3DL2 mutant MD0/HLA1 (F9S, S11A) (human, UniProt P43630 22-455); test: as above
T22 construct: Expressed on transfected HEK-293T cells; also called Number 31 (D0-HLA1)

T15 sequence (P43629 22-444 limits assumed): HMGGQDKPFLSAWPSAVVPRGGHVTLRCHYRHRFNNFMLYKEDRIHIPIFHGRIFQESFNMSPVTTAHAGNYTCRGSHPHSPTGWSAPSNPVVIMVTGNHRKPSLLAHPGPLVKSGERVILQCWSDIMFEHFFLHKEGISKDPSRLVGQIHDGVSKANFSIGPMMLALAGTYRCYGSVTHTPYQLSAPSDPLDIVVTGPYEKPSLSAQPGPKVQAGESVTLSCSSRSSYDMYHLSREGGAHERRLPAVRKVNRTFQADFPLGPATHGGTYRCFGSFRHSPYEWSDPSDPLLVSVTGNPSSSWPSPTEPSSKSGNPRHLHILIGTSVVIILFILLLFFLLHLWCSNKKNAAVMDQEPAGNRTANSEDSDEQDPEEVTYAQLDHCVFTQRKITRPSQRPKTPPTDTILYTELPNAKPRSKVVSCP

B1: antibody 12B11 (antibody, V domains shown)
VH: QLVQSGPELKNPGETVKISCKASGYTFTNYGMNWVKQAPGKGLKWMGWINTYTGEPTYADDFKGRFAFSLETSASTAYLQINNLKNEDTATYFCAHGPWLAYWGQGTLVTVS
VL: DIKMTQSPSSMYASLGERVTITCKASQDINVYLSWFQQKPGKSPKTLIYRAIRLVDGVPSRFSGSGSGQDYSLTISSLDYEDMGIYYCLQYDELPYTFGGGTKLEIE
binding result [1]: binds
binding result [2]: binds
binding result [3]: binds
binding result [4]: binds
binding result [5]: binds
binding result [6]: binds
binding result [7]: binds
binding result [8]: binds
binding result [9]: binds
binding result [10]: no binding
binding result [11]: no binding
binding result [12]: no binding
binding result [13]: no binding

B2: Hum23-K32-15C11 (antibody, V domains shown)
VH: EVQLVESGGGLVQPGGSLRLSCAASGFTFSDAWMDWVRQAPGKGLEWVGEIRSKANNHATYYAASVKGRFTISRDDSKNSLYLQMNSLKTEDTAVYYCTGGYYPVYWGQGTLVTVSS
VL: DIQMTQSPSSLSASVGDRVTITCKASQDINKNIAWYQHKPGKAPKLLIHYTSTLQPGVPSRFSGSGSGRDYTFTISSLQPEDIATYYCLQYDNLLTFGGGTKVEIK
notes: also called H2/L3
Kd [14]: 0.5 nM
koff [14]: 0.00014 s⁻¹
Kd [15]: 1.24 nM
koff [15]: 0.000329 s⁻¹

B3: Hum22-K32-15C11 (antibody, V domains shown)
VH: B2 VH
VL: B2 VL with R69T, Y71F
notes: also called H2/L2
Kd [14]: 0.65 nM
koff [14]: 0.000156 s⁻¹
Kd [15]: 1.74 nM
koff [15]: 0.000385 s⁻¹

B4: Hum12-K32-15C11 (antibody, V domains shown)
VH: B2 VH with E50R, Y61A
VL: B2 VL with R69T, Y71F
notes: also called H1/L2; H1-L2
Kd [14]: 1.63 nM
koff [14]: 0.000109 s⁻¹
Kd [15]: 5.61 nM
koff [15]: 0.00132 s⁻¹

B5: Hum13-K32-15C11 (antibody, V domains shown)
VH: B2 VH with E50R, Y61A
VL: B2 VL
notes: also called H1/L3
Kd [14]: 1.13 nM
koff [14]: 0.000286 s⁻¹
Kd [15]: 4.59 nM
koff [15]: 0.00105 s⁻¹

B6: Hum33-K32-15C11 (antibody, V domains shown)
VH: B2 VH with G49A, L81V
VL: B2 VL
notes: also called H3/L3; H3-L3
Kd [14]: 0.33 nM
koff [14]: 7.8e-05 s⁻¹
Kd [15]: 0.78 nM
koff [15]: 0.00018 s⁻¹

B7: Hum32-K32-15C11 (antibody, V domains shown)
VH: B2 VH with G49A, L81V
VL: B2 VL with R69T, Y71F
notes: also called H3/L2
Kd [14]: 0.51 nM
koff [14]: 0.000104 s⁻¹
Kd [15]: 1.29 nM
koff [15]: 0.00025 s⁻¹

B8: antibody 19H12 (antibody, mouse IgG2b, V domains shown)
VH: QIQLVQSGPELKKPGETVKISCKASGYTFTNFGMNWVKQAPGKGLKWMGWINTYTGEPTYADDFKGRFAFSLETSASTAYLQINNLKNEDMATYFCARNGNFGYYFDYWGQGTTLTVSS
VL: DVLMTQTPLSLPVSLGDQASFSCRSSQNIVHSNGNTYLEWYLQKPGQSPSLLIYKVSNRFSGVPDRFSGSGSGTDFTLKITRVEAEDLGVYYCFQGSHVPFTFGSGTKLEIK
notes: also called mo19H12
binding result [16]: no binding
Kd [17]: 0.49 nM
binding result [2]: binds
binding result [4]: binds
binding result [5]: binds
binding result [6]: binds
binding result [8]: binds
binding result [9]: binds
binding result [10]: no binding
binding result [18]: no binding
binding result [13]: no binding
IC50 (read off the curve) [19]: ~0.4 µg/mL
% of cells in gate NK GaM PE+ [20]: 14.9%
% of cells in gate CD4 GaM PE+ [21]: 7.5%

B9: antibody 22B2 (antibody, mouse IgG1, V domains shown)
VH: QIQLVQSGPELKKPGETVKISCKASGYTFTNYGMNWVKQAPGKGLKWMGWINTYTGEPTYADDFKGRFAFSLETSATTAYLQINNLKNEDMATYFCSRSFGSTYGDYWGQGTTLTVSS
VL: B8 VL with F21I, N28T, S50K, T81S, F101W, S105G
binding result [16]: no binding
Kd [17]: 2.2 nM
% of cells in gate NK GaM PE+ [20]: 11.6%
% of cells in gate CD4 GaM PE+ [21]: 7.7%

B10: antibody 13H1 (antibody, V domains shown)
VH: EVQLQQSGPELVKPGASMKISCKASHYSFIGYTMNWVKQRHGKNLEWIGLINPYNGDTTYNQKFKGKASLTVDKSSSTAYMEILSLTSEDSAVYYCARENWGYPYAMDYWGQGTSVTVS
VL: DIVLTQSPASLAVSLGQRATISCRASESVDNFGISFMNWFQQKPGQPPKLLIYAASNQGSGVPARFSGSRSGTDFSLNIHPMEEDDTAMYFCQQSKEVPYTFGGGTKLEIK
binding result [22]: no binding
binding result [23]: no binding
binding result [24]: binds
binding result [25]: binds

B11: chimeric 15C11 of human IgG1 Fc isotype (antibody, V domains shown)
VH: EVKLEESGGGLVQPGGSMKLSCAASGFTFSDAWMDWVRQSPEKGLEWVAEIRSKANNHATYYAESVKGRFTISRDDSKSSVYLRMNSLRAEDTGIYYCTGGYYPVYWGQGTLVTVSA
VL: DIQMTQSPSSLSASLGGKVTITCKASQDINKNIAWYQHKPGKGPRLLIHYTSTLQPGFPSRFSGSGSGRDYSFSISNLEPEDLATYYCLQYDNLLTFGGGTKLEIK
notes: Human-mouse chimeric antibody with the variable regions of murine 15C11; also called chim15C11; Chim15C11
Kd [14]: 0.22 nM
koff [14]: 0.000108 s⁻¹
Kd [15]: 0.68 nM
koff [15]: 0.00029 s⁻¹
